Data as given in publication PMC4990751 (Molecules and Cells, 2016).

Molecular target: the molecule itself
Assay: SEC

B1: T105C-PaAhpC (enzyme, Pseudomonas aeruginosa PAO1, UniProt Q9I6Z3 1-187, looked up)
chain: MSLINTQVQPFKVNAFHNGKFIEVTEESLKGKWSVLIFMPAAFTFNCPTEIEDAANNYGEFQKAGAEVYIVTTDTHFSHKVWHETSPAVGKAQFPLIGDPTHQLCNAFGVHIPEEGLALRGTFVINPEGVIKTVEIHSNEIARDVGETVRKLKAAQYTAAHPGEVCPAKWKEGEKTLAPSLDLVGKI
  stoichiometry N: 10
